This passage reports Kd results from the Immune Epitope Database (IEDB).

Experiment [1] has as its target HLA-A*02:01. Put plainly: IEDB peptide-MHC binding, purified MHC/competitive/fluorescence; filed as Kd, often an IC50 or EC50 that approximates it; ≥ and ≤ were set here for values at or beyond the usual limits of such assays. The following applies: source organism: Vaccinia virus WR.
In a further experiment the target is HLA-C*03:03. Put plainly: IEDB peptide-MHC binding, purified MHC/direct/fluorescence; filed as Kd, often an IC50 or EC50 that approximates it; ≥ and ≤ were set here for values at or beyond the usual limits of such assays.
A further experiment deals with HLA-B*51:01. Put plainly: IEDB peptide-MHC binding, purified MHC/competitive/fluorescence; filed as Kd, often an IC50 or EC50 that approximates it; ≥ and ≤ were set here for values at or beyond the usual limits of such assays.
A further experiment deals with HLA-B*35:01. The description is as above. As to conditions: source organism: Influenza A virus (A/Kayano/57(H2N2)).
The next experiment addresses HLA-B*07:02. The experiment is described as above.
For a further experiment, the target named is HLA-C*05:01. Put plainly: IEDB peptide-MHC binding, purified MHC/direct/fluorescence; filed as Kd, often an IC50 or EC50 that approximates it; ≥ and ≤ were set here for values at or beyond the usual limits of such assays.
The next experiment deals with HLA-C*07:02. The description is as above.
The target of another experiment is HLA-A*02:11. The description is as above. As to conditions: source organism: Hantaan virus Q32.
The target of experiment [2] is HLA-A*02:01. The experiment is described as above.
The target in another experiment is HLA-A*02:19. The description is as above. The following applies: source organism: Hantaan virus Q32.
In the next experiment the target is HLA-A*02:12. The experiment is described as above. The following applies: source organism: Hantaan virus Q32.
The target of the next experiment is HLA-B*39:01. Put plainly: IEDB peptide-MHC binding, purified MHC/competitive/fluorescence; filed as Kd, often an IC50 or EC50 that approximates it; ≥ and ≤ were set here for values at or beyond the usual limits of such assays. As to conditions: source organism: Homo sapiens.
The target in another experiment is HLA-B*27:03. The description is as above. As to conditions: source organism: Homo sapiens.
For a further experiment, the target named is HLA-B*15:01. The experiment is described as above.
Experiment [3] addresses HLA-B*57:01. The experiment is described as above. As to conditions: source organism: Homo sapiens.
The target of experiment [4] is HLA-B*18:01. The experiment is described as above. The following applies: source organism: Homo sapiens.
The target in experiment [5] is HLA-A*26:01. The experiment is described as above. As to conditions: source organism: Homo sapiens.
The target in another experiment is HLA-B*46:01. The experiment is described as above. As to conditions: source organism: Homo sapiens.
Experiment [6] deals with HLA-A*01:01. The description is as above. The following applies: source organism: Staphylococcus aureus subsp. aureus N315.
The target of the next experiment is HLA-B*45:06. The experiment is described as above.
Another experiment deals with HLA-A*68:23. The experiment is described as above.
The target in another experiment is HLA-B*15:42. The description is as above.
The target in another experiment is HLA-C*14:02. The description is as above.
A further experiment deals with HLA-B*83:01. Described as above.
Another experiment has as its target HLA-A*69:01. Put plainly: IEDB peptide-MHC binding, purified MHC/direct/fluorescence; filed as Kd, often an IC50 or EC50 that approximates it; ≥ and ≤ were set here for values at or beyond the usual limits of such assays.
In the next experiment the target is HLA-B*48:01. Put plainly: IEDB peptide-MHC binding, purified MHC/competitive/fluorescence; filed as Kd, often an IC50 or EC50 that approximates it; ≥ and ≤ were set here for values at or beyond the usual limits of such assays.
Another experiment addresses HLA-B*27:05. The description is as above.
Another experiment addresses HLA-B*15:02. The description is as above.
For a further experiment, the target named is HLA-A*30:01. The description is as above. As to conditions: source organism: Francisella tularensis subsp. tularensis FSC198.
In another experiment the target is HLA-A*02:03. Described as above. As to conditions: source organism: Francisella tularensis subsp. tularensis FSC198.
The target in the next experiment is HLA-A*26:02. The experiment is described as above. The following applies: source organism: Francisella tularensis subsp. tularensis FSC198.
Experiment [7] has as its target HLA-A*01:01. Put plainly: IEDB peptide-MHC binding, purified MHC/direct/fluorescence; filed as Kd, often an IC50 or EC50 that approximates it; ≥ and ≤ were set here for values at or beyond the usual limits of such assays. The following applies: source organism: Francisella tularensis subsp. holarctica LVS.
A further experiment deals with HLA-A*11:01. The experiment is described as above. The following applies: source organism: Francisella tularensis subsp. holarctica LVS.
In a further experiment the target is HLA-B*08:03. Described as above. The following applies: source organism: Francisella tularensis subsp. tularensis FSC033.
Another experiment concerns the target HLA-B*08:01. The experiment is described as above. As to conditions: source organism: Francisella tularensis subsp. holarctica LVS.
In experiment [8] the target is HLA-B*57:01. The description is as above. The following applies: source organism: Francisella tularensis subsp. holarctica LVS.
The target of another experiment is HLA-A*68:02. The description is as above. As to conditions: source organism: Francisella tularensis subsp. holarctica LVS.
Experiment [9] deals with HLA-B*18:01. Described as above. As to conditions: source organism: Francisella tularensis subsp. holarctica LVS.
For another experiment, the target named is HLA-A*31:01. The description is as above. As to conditions: source organism: Francisella tularensis subsp. holarctica LVS.
For experiment [10], the target named is HLA-A*26:01. Described as above. As to conditions: source organism: Francisella tularensis subsp. tularensis FSC033.
The target in another experiment is HLA-B*58:01. The experiment is described as above. The following applies: source organism: Francisella tularensis subsp. holarctica LVS.
Setting [11] is: source organism: Influenza A virus (A/Kayano/57(H2N2)).
[12] abbreviates: source organism: Staphylococcus aureus subsp. aureus N315.
Where [13] appears, read: source organism: Francisella tularensis subsp. tularensis FSC198.
Setting [14] is: source organism: Francisella tularensis subsp. holarctica LVS.

As for FLHESDPMV, the dissociation constant (Kd) (usually the free concentration of one partner at which half of the binding sites on the other are occupied at equilibrium, for simple one-to-one binding) in the experiment with HLA-A*02:01 [1] was 1.7 nM; in the experiment with HLA-C*03:03 (source organism: Vaccinia virus WR) it was at least 20000 nM.
As to LPFHNVHPL, the dissociation constant (Kd) in the experiment with HLA-B*51:01 (setting [11]) is 202 nM; with HLA-B*35:01, at most 0.1 nM; with HLA-B*07:02 (setting [11]), 5.6 nM; with HLA-C*05:01 (setting [11]), at least 20000 nM; in the experiment with HLA-C*07:02 (setting [11]) it was 2490 nM.
For SQDDNYFTL, the equilibrium dissociation constant (Kd) with HLA-C*03:03 (source organism: Giardia lamblia P15) stood at 266 nM.
With FMFNDLLKL, the Kd was at most 1 nM in the experiment with HLA-A*02:11; at most 1 nM with HLA-A*02:01 [2] (source organism: Orthohantavirus hantanense); 1250 nM in the experiment with HLA-C*03:03 (source organism: Orthohantavirus); 15 nM with HLA-A*02:19; 3 nM with HLA-A*02:12.
Take HYNAFQWAI: the Kd with HLA-C*07:02 (source organism: Acanthisitta chloris) came to 29 nM.
Turning to LTDSSTLLV, the Kd in the experiment with HLA-B*39:01, with HLA-B*27:03, with HLA-B*15:01 (source organism: Homo sapiens), in the experiment with HLA-B*57:01 [3], with HLA-B*18:01 [4] and with HLA-B*51:01 (source organism: Homo sapiens) was at least 20000 nM each time. Besides, the Kd with HLA-A*26:01 [5] is at least 20000 nM; with HLA-B*46:01, at least 20000 nM; with HLA-C*05:01 (source organism: Homo sapiens) it was 8 nM.
In the case of YTIGIGAFY, the dissociation constant (Kd) with HLA-A*01:01 [6] was 1.5 nM; in the experiment with HLA-B*45:06 (setting [12]), at least 5000 nM; in the experiment with HLA-A*68:23 (setting [12]), at most 0.1 nM; in the experiment with HLA-B*15:42 (setting [12]), at least 5000 nM; with HLA-C*14:02 (setting [12]) it was 9.4 nM; in the experiment with HLA-B*83:01 (setting [12]), at least 5000 nM.
Regarding ALMDYGFRV, the Kd with HLA-C*03:03 (source organism: Mycobacterium tuberculosis variant bovis BCG str. Pasteur 1173P2) was at least 20000 nM; with HLA-A*69:01 (source organism: Mycobacterium tuberculosis) it was 42 nM.
VQHAPQVSL: in the experiment with HLA-B*48:01 (source organism: Giardia lamblia ATCC 50803), the Kd stood at 137 nM.
The sequence YGLERLAAM yielded an equilibrium dissociation constant (Kd) with HLA-C*07:02 (source organism: human gammaherpesvirus 4) of 18 nM.
In the case of KRMGVQVQR, the Kd in the experiment with HLA-B*27:05 (source organism: Influenza A virus (A/environment/Hong Kong/437-10/99 (H5N1))) came to 99.8 nM.
MQALGHPIL: the dissociation constant (Kd) with HLA-B*48:01 (source organism: Photobacterium angustum S14) worked out at 175 nM.
Take RLPKDFVDL: the Kd is at least 5000 nM with HLA-B*45:06 (source organism: Homo sapiens); 67.7 nM with HLA-A*68:23 (source organism: Homo sapiens); at least 5000 nM with HLA-B*15:42 (source organism: Homo sapiens); 112 nM with HLA-C*14:02 (source organism: Homo sapiens); at least 5000 nM in the experiment with HLA-B*83:01 (source organism: Homo sapiens).
For SQMPTSLNF, in the experiment with HLA-B*15:02 (source organism: Escherichia coli str. K-12 substr. MG1655), the equilibrium dissociation constant (Kd) was 23.8 nM.
Consider EFKRRLKDL, for which the dissociation constant Kd in the experiment with HLA-B*15:01 (setting [13]), in the experiment with HLA-A*30:01, with HLA-A*02:03, with HLA-A*26:02, with HLA-B*07:02 (setting [13]) and with HLA-A*01:01 [7] was at least 20000 nM each time. Also, the equilibrium dissociation constant (Kd) is at least 20000 nM with HLA-A*11:01; at least 20000 nM with HLA-A*02:01 [2] (setting [14]); at least 20000 nM with HLA-B*08:03; 52.3 nM with HLA-B*08:01; at least 20000 nM with HLA-B*57:01 [8]; at least 20000 nM with HLA-A*68:02. The equilibrium dissociation constant (Kd) with HLA-B*18:01 [9], with HLA-A*31:01, in the experiment with HLA-A*26:01 [10], with HLA-A*69:01 (setting [14]) and with HLA-B*58:01 was at least 20000 nM each time.
In the experiment with HLA-B*15:02 (source organism: Vibrio vulnificus YJ016), EQRAGYQAF had a Kd of 117 nM.
With LRAAIELPL, in the experiment with HLA-B*27:05 (source organism: Mycobacterium tuberculosis H37Ra), the dissociation constant (Kd) amounted to 160 nM.
The sequence WLVNTYQNY displayed a Kd with HLA-B*15:02 (source organism: Cryptosporidium parvum) of 80.2 nM.
